Results: PMC12261273, “Refinement and Truncation of DNA Aptamers Based on Molecular Dynamics Simulations: Computational Protocol and Experimental Validation”

Columns and labels:
[1] = system: 33-mer immunodominant gluten (gliadin) peptide; assay: chronoamperometry; conditions: RT (electrochemistry), pH 7.4, PSA-1, B4 and truncations: 1x PBS (10 mM phosphate, 154 mM NaCl), 24nt variants: 10 mM Tris-HCl, 150 mM NaCl, 5 mM KCl
[2] = system: 33-mer immunodominant gluten (gliadin) peptide; assay: SPR; conditions: RT (electrochemistry), pH 7.4, PSA-1, B4 and truncations: 1x PBS (10 mM phosphate, 154 mM NaCl), 24nt variants: 10 mM Tris-HCl, 150 mM NaCl, 5 mM KCl
[3] = system: collagen XI 10-mer peptide (non-helical C-telopeptide fragment); assay: chronoamperometry (magnetic beads); conditions: RT (electrochemistry), pH 7.4, PSA-1, B4 and truncations: 1x PBS (10 mM phosphate, 154 mM NaCl), 24nt variants: 10 mM Tris-HCl, 150 mM NaCl, 5 mM KCl
[4] = molecular target: T1, prostate specific antigen (PSA) (human, UniProt P07288 25-261); assay: SPR; RT (electrochemistry), pH 7.4; PSA-1, B4 and truncations: 1x PBS (10 mM phosphate, 154 mM NaCl); 24nt variants: 10 mM Tris-HCl, 150 mM NaCl, 5 mM KCl, 5 mM MgCl2; Gli1 series: 50 mM Tris-HCl, 250 mM NaCl, 5 mM MgCl2; conditions: protein: native; label: 5' 6FAM
T1 sequence (P07288 25-261): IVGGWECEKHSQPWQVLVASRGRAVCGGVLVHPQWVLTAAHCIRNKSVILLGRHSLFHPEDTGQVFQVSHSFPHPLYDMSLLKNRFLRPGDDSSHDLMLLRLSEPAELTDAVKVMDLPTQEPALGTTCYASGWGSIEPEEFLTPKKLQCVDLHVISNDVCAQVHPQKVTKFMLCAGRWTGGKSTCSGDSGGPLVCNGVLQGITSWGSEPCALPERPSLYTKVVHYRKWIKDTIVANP

[5] = molecular target: T1, prostate specific antigen (PSA); assay: chronoamperometry; RT (electrochemistry), pH 7.4; PSA-1, B4 and truncations: 1x PBS (10 mM phosphate, 154 mM NaCl); 24nt variants: 10 mM Tris-HCl, 150 mM NaCl, 5 mM KCl, 5 mM MgCl2; Gli1 series: 50 mM Tris-HCl, 250 mM NaCl, 5 mM MgCl2; conditions: protein: native; label: 5' 6FAM
[6] = molecular target: T1, prostate specific antigen (PSA); assay: SPR; 5 mM MgCl2; RT (electrochemistry), pH 7.4; PSA-1, B4 and truncations: 1x PBS (10 mM phosphate, 154 mM NaCl); 24nt variants: 10 mM Tris-HCl, 150 mM NaCl, 5 mM KCl, 5 mM MgCl2; Gli1 series: 50 mM Tris-HCl, 250 mM NaCl, 5 mM MgCl2; conditions: protein: native; label: 5' 6FAM; hairpin
[7] = molecular target: T1, prostate specific antigen (PSA); assay: chronoamperometry; 5 mM MgCl2; RT (electrochemistry), pH 7.4; PSA-1, B4 and truncations: 1x PBS (10 mM phosphate, 154 mM NaCl); 24nt variants: 10 mM Tris-HCl, 150 mM NaCl, 5 mM KCl, 5 mM MgCl2; Gli1 series: 50 mM Tris-HCl, 250 mM NaCl, 5 mM MgCl2; conditions: protein: native; label: 5' 6FAM; hairpin

Molecule “CTAGGCGAAATATAGCTACAACTGTCTGA [Gli1T(1-29)]” has a Kd [1] of 86 nM and a Kd [2] of 71 nM.

“TTTTTGACGCAAGAAATTCAGGGCACCTGGAACGACGCGTCGGCT [B4]” showed a Kd [3] of 147 nM.

For “TTTTTATTCAGGGCACCTGGAACGACGCGTCGGCT [B4T(11-40)]”, the Kd [3] was 44 nM.

“CTAGGCGAAATATAGCTACAACTGTCTGAAGGCACCCAAT [Gli1]” gave a Kd [1] of 136 nM and a Kd [2] of 155 nM.

With TTTTTTATTTAACCAAAAGTCTGGATTAACA (ssDNA) [PSA-1T(15-40)] the Kd [4] was 130 ± 25 nM and the Kd [5] was 111 ± 9 nM.

TTTTTGGACGGTTGCGCTATATTTAACCAAAAGTCTGGATTAACA (ssDNA) [PSA-1] was tested, and the Kd [4] was 125 ± 21 nM and the Kd [5] was 348 ± 58 nM.

For TTTTTAATTAAAGCTCGCCATCAAATAGCTTT (ssDNA) [5Ts-24nt-3Ts (deltaPSap4#5)], the Kd [6] was 232 ± 4 nM and the Kd [7] was 152 ± 9 nM.

TTTTTAATTAAAGCTCGCCATCAAATAGC (ssDNA) [5Ts-24nt] showed a Kd [6] of 545 ± 24 nM and a Kd [7] of 460 ± 64 nM.
